Source: patent publication US8309523 (VIB VZW, dated 2012)

Key:
[1] = molecular target: T1, MALT1 (wild type, Flag- and Avi-tagged bio-construct) (human, UniProt Q9UDY8 1-824, Avi-tag biotinylated in vivo by co-expressed BirA); assay: bio-IP from HEK293T cells, anti-TRAF6 immunoblot
T1 construct: also called paracaspase; bio-IP purified MALT1
T1 sequence (looked up): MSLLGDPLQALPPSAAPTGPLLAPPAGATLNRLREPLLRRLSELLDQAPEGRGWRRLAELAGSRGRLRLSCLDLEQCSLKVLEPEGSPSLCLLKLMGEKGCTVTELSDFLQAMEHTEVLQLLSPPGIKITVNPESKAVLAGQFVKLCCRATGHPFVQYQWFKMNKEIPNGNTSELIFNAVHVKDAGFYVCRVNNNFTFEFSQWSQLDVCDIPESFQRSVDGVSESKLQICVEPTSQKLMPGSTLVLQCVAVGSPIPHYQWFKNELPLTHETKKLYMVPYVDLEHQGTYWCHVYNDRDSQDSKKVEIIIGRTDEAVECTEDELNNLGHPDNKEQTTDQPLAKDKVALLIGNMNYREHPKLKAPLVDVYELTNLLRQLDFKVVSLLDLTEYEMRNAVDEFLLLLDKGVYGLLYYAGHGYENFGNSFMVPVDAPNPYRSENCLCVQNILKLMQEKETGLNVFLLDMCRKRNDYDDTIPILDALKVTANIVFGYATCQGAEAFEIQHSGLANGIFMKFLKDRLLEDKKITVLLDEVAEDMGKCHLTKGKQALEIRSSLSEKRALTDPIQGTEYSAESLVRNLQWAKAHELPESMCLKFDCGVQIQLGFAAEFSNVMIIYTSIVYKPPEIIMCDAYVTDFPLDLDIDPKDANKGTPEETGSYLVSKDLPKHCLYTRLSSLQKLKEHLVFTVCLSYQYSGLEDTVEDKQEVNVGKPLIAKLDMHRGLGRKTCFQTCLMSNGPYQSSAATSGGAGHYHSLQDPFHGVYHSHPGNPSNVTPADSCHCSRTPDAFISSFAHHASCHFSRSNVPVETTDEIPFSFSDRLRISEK
Description: (§1) FIG. 5: p76 activates NFκB via TRAF6. […] Panel B) TRAF6 mediates NFκB signaling by p76. Top: NFκB-reporter assays of HEK293T cells transiently expressing MALT1, p76 and mutants or MALT1-C. Bottom: MALT1, p76 or MALT1-C, transiently expressed in HEK293T cells, were purified via bio-IPs and immunoblotted with anti-MALT1 (to show equal expression), anti-TRAF6 and anti-BCL10. Panel C) p76 induces polyubiquitination of IKKγ. Immunoblot analysis of bio-IP and IKKγ-IP of 293T cells transfected with pcD-F-IKKγ and pcd-HA-Ub in combination with indicated Avi-tagged MALT1 constructs. Panel D) BCL10 is not involved in NFκB signaling by p76. NFκB reporter assays of HEK-293T cells transfected with siRNA duplexes against MALT1, BCL10 or GFP (as control) followed by transient transfection with p76. The expression levels were determined by immunoblot with anti-MALT1 and anti-BCL10. NFκB-dependent luciferase activity […] is shown as fold induction of vector-transfected cells and represents the mean+/−S.D. of three independent experiments.
(§2) NFκB activation by MALT1 requires TRAF6 binding via two distinct sites (19), which are both present in the p76 cleavage fragment. Mutation of one TRAF6 binding site, either E313A/E316A (T6Ig-m) or E806A (T6C-m), abolished the potential of p76 to activate NFκB signaling in 293T cells (FIG. 5, Panel B). […] Furthermore, NFκB activation by p76 in 293T cells was associated with increased polyubiquitination of IKKγ (FIG. 5, Panel C).

p76 T6Ig-m (E313A/E316A) = molecular target: T2, p76 T6Ig-m (E313A/E316A) (human, UniProt Q9UDY8 150-824, Avi-tag biotinylated in vivo by co-expressed BirA); assay: bio-IP from HEK293T cells, anti-TRAF6 immunoblot
T2 construct: domain: p76 cleavage fragment
T2 sequence (looked up): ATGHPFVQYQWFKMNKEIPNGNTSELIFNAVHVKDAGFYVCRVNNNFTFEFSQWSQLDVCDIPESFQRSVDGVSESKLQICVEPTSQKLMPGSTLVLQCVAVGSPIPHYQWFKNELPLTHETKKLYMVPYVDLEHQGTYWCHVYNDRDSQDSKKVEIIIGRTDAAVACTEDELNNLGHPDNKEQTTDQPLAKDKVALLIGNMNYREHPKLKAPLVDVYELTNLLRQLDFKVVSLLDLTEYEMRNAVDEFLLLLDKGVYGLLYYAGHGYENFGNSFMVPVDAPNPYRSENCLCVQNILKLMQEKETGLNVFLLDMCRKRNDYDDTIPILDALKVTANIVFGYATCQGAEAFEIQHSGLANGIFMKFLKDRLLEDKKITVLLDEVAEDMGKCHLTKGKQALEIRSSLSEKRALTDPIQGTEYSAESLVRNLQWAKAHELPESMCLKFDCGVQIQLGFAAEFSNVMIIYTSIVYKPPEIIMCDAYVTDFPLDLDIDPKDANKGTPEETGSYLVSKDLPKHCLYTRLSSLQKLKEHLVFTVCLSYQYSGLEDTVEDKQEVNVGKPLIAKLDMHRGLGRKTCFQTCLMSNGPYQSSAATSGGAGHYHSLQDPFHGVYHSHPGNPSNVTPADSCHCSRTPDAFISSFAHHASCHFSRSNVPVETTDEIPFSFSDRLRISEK
Description: as §1, §2

binding result [1]: binds
binding result (p76 T6Ig-m (E313A/E316A)): binds
B1: TRAF6 (other, UniProt Q9Y4K3 1-522, looked up)
chain: MSLLNCENSCGSSQSESDCCVAMASSCSAVTKDDSVGGTASTGNLSSSFMEEIQGYDVEFDPPLESKYECPICLMALREAVQTPCGHRFCKACIIKSIRDAGHKCPVDNEILLENQLFPDNFAKREILSLMVKCPNEGCLHKMELRHLEDHQAHCEFALMDCPQCQRPFQKFHINIHILKDCPRRQVSCDNCAASMAFEDKEIHDQNCPLANVICEYCNTILIREQMPNHYDLDCPTAPIPCTFSTFGCHEKMQRNHLARHLQENTQSHMRMLAQAVHSLSVIPDSGYISEVRNFQETIHQLEGRLVRQDHQIRELTAKMETQSMYVSELKRTIRTLEDKVAEIEAQQCNGIYIWKIGNFGMHLKCQEEEKPVVIHSPGFYTGKPGYKLCMRLHLQLPTAQRCANYISLFVHTMQGEYDSHLPWPFQGTIRLTILDQSEAPVRQNHEEIMDAKPELLAFQRPTIPRNPKGFGYVTFMHLEALRQRTFIKDDTLLVRCEVSTRFDMGSLRREGFQPRSTDAGV
notes: Co-precipitated from lysates of human cell lines
